# Molecular target: BCL6-POZ domain (residues 7 to 128 of human BCL6, C8Q, C67R, C84N) (UniProt P41182)
# Experiment: fluorescence polarisation
row,Kd [µM],Substance
1,43,"wild-type SMRT peptide, labelled with BODIPY TMR H1426(homophenylalanine)"
2,41,"wild-type SMRT peptide, labelled with BODIPY TMR H1426(styrylalanine)"

# Reference: publication PMC3942486, “The Ansamycin Antibiotic, Rifamycin SV, Inhibits BCL6 Transcriptional Repression and Forms a Complex with the BCL6-BTB/POZ Domain” (PLoS ONE, 2014)
